Experiment [1] addresses HAFib3 (Fib3 prey fragment with an N-terminal hemagglutinin tag) (human) (UniProt Q12805). Kind of experiment: ELISA; HAFib3 (250 ng/ml) captured on plate-bound anti-HA antibody; a range of concentrations of CFH678 (H or Y) in PBS, overnight at 4°C; detected with goat anti-CFH and HRP secondary antibody at 450 nm; background without HAFib3 subtracted, 8 replicates; one-site specific binding fit (GraphPad Prism). A general note: In an ELISA, binding on a coated surface is turned into a signal by an enzyme label.

The target of experiment [2] is CFH SCR7 bait, 402H variant (human). Kind of experiment: two-hybrid; quantitative βGal assay in selective liquid culture with CPRG substrate, Miller Units; five independent yeast clones for each bait.
Sequence of CFH SCR7 bait, 402H variant (human) (P08603 19-1231, change not shown): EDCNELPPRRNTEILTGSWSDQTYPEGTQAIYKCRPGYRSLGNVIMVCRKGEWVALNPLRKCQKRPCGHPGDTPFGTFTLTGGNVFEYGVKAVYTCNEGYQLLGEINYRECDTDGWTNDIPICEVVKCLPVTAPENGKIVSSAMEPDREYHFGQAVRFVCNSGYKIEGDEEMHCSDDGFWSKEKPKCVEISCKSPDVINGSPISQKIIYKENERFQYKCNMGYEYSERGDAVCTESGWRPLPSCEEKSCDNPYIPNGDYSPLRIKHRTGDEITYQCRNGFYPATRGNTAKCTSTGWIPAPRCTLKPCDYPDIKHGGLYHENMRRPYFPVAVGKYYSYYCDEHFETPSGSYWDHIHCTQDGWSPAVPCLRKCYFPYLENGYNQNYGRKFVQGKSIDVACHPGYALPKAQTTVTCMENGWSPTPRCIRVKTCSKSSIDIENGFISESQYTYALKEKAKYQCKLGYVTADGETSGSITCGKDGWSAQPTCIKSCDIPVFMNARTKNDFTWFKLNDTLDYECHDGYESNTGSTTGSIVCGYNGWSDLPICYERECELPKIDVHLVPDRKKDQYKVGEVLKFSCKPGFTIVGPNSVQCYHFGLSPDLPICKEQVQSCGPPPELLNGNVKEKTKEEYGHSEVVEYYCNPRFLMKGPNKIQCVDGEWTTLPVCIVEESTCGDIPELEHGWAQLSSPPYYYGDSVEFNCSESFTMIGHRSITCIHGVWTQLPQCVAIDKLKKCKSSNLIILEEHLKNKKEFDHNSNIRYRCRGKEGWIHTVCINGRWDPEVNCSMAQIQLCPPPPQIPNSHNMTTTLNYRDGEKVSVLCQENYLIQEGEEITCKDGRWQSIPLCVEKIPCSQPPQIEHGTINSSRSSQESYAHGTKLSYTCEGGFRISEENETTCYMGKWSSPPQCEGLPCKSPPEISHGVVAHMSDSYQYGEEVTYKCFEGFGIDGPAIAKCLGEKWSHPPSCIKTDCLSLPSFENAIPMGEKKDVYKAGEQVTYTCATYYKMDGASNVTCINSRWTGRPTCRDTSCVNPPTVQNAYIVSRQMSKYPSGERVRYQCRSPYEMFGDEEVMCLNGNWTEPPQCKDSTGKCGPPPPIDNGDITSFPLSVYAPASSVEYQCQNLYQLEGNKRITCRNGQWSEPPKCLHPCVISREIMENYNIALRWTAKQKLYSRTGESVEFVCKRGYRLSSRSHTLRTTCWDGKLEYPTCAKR

“Recombinant CFH domains 6-8, 402Y variant (CFH678-Y) (domain or fragment)” displayed a Kd in experiment [1] of 197 nM.
Still for that read-out and setting: the figure for “Recombinant CFH domains 6-8, 402H variant (CFH678-H) (domain or fragment)” is 134 nM.

B1: Fib3 prey fusion protein from the Y2H screen (EFEMP1/Fibulin 3 residues 289-493) (domain or fragment)
chain: RLNCEDIDECRTSSYLCQYQCVNEPGKFSCMCPQGYQVVRSRTCQDINECETTNECREDEMCWNYHGGFRCYPRNPCQDPYILTPENRCVCPVSNAMCRELPQSIVYKYMSIRSDRSVPSDIFQIQATTIYANTINTFRIKSGNENGEFYLRQTSPVSAMLVLVKSLSGPREHIVDLEMLTVSSIGTFRTSSVLRLTIIVGPFSF
For B1, in experiment [2], the higher βGal activation than with CFH-Y is 60%.

As a reminder, the Kd is a measure of binding affinity in units of concentration. A low value points to higher affinity.
